Data taken from patent US20230346885A1 (published 2023).
One block for each binder: values may come before it.

How the values were obtained:
Assay in all cases: binding, other
ASCL2 peptide on HLA [1] = target: T1, ASCL2 peptide on HLA (human)
T1 peptide: LLAEHDAVRNAL

ACTL8 peptide on HLA [2] = target: T2, ACTL8 peptide on HLA (human)
T2 peptide: RCLFQLETV

ASCL2 peptide on HLA [3] = target: T3, ASCL2 peptide on HLA (human)
T3 peptide: LLAEHDAVRNA

BRDT peptide on HLA = target: T4, BRDT peptide on HLA (human)
T4 peptide: EMFPKFTEV

ACTL8 peptide on HLA [4] = target: T5, ACTL8 peptide on HLA (human)
T5 peptide: ALDESNTYQL

ACTL8 peptide on HLA [5] = target: T6, ACTL8 peptide on HLA (human)
T6 peptide: SLYASGLLTGV

CALHM3 peptide on HLA = target: T7, CALHM3 peptide on HLA (human)
T7 peptide: ALLDGKCFV

binding result (ACTL8 peptide on HLA [4]): recognises
B12: TCR of SEQ ID NOs 275 and 276 (TCR, V domains shown)
Valpha: KQEVTQIPAALSVPEGENLVLNCSFTDSAIYNLQWFRQDPGKGLTSLLLIQSSQREQTSGRLNASLDKSSGRSTLYIAASQPGDSATYLCAVRGYNKLIFGAGTRLAVHP
Vbeta: NAGVTQTPKFRILKIGQSMTLQCTQDMNHNYMYWYRQDPGMGLKLIYYSVGAGITDKGEVPNGYNVSRSTTEDFPLRLLSAAPSQTSVYFCASSYSPIVGAFFGQGTRLTVV

binding result (ACTL8 peptide on HLA [4]): recognises
B13: TCR of SEQ ID NOs 277 and 278 (TCR, V domains shown)
Valpha: KQEVTQIPAALSVPEGENLVLNCSFTDSAIYNLQWFRQDPGKGLTSLLLIQSSQREQTSGRLNASLDKSSGRSTLYIAASQPGDSATYLCAVRGYNKLIFGAGTRLAVHP
Vbeta: NAGVTQTPKFRILKIGQSMTLQCAQDMNHNYMYWYRQDPGMGLKLIYYSVGAGITDKGEVPNGYNVSRSTTEDFPLRLELAAPSQTSVYFCASTRDTYYGYTFGSGTRLTVV

binding result (ACTL8 peptide on HLA [5]): recognises
B14: TCR of SEQ ID NOs 281 and 282 (TCR, V domains shown)
Valpha: KQEVTQIPAALSVPEGENLVLNCSFTDSAIYNLQWFRQDPGKGLTSLLLIQSSQREQTSGRLNASLDKSSGRSTLYIAASQPGDSATYLCAVRGYNKLIFGAGTRLAVHP
Vbeta: NAGVTQTPKFRVLKTGQSMTLLCAQDMNHEYMYWYRQDPGMGLRLIHYSVGEGTTAKGEVPDGYNVSRLKKQNFLLGLESAAPSQTSVYFCASSFDVTEAFFGQGTRLTVV

binding result (CALHM3 peptide on HLA): recognises
B15: TCR of SEQ ID NOs 327 and 328 (TCR, V domains shown)
Valpha: GNSVTQMEGPVTLSEEAFLTINCTYTATGYPSLFWYVQYPGEGLQLLLKATKADDKGSNKGFEATYRKETTSFHLEKGSVQVSDSAVYFCAPHTDKLIFGTGTRLQVFP
Vbeta: DSGVTQTPKHLITATGQRVTLRCSPRSGDLSVYWYQQSLDQGLQFLIQYYNGEERAKGNILERFSAQQFPDLHSELNLSSLELGDSALYFCASSGGTGDGYTFGSGTRLTVV

binding result (ACTL8 peptide on HLA [2]): recognises
B16: TCR of SEQ ID NOs 287 and 288 (TCR, V domains shown)
Valpha: KQEVTQIPAALSVPEGENLVLNCSFTDSAIYNLQWFRQDPGKGLTSLLLIQSSQREQTSGRLNASLDKSSGRSTLYIAASQPGDSATYLCAVNYYNQGGKLIFGQGTELSVKP
Vbeta: NAGVTQTPKFQVLKTGQSMTLQCAQDMNHNSMYWYRQDPGMGLRLIYYSASEGTTDKGEVPNGYNVSRLNKREFSLRLESAAPSQTSVYFCASTPTYWDSYEQYFGPGTRLTVT

binding result (BRDT peptide on HLA): recognises
B17: TCR of SEQ ID NOs 311 and 312 (TCR, V domains shown)
Valpha: KQEVTQIPAALSVPEGENLVLNCSFTDSAIYNLQWFRQDPGKGLTSLLLIQSSQREQTSGRLNASLDKSSGRSTLYIAASQPGDSATYLCAVTGGTSYGKLTFGQGTILTVHP
Vbeta: NAGVTQTPKFRILKIGQSMTLQCTQDMNHNYMYWYRQDPGMGLKLIYYSVGAGITDKGEVPNGYNVSRSTTEDFPLRLELAAPSQTSVYFCASSYWAGVLTEAFFGQGTRLTVV

binding result (CALHM3 peptide on HLA): recognises
B18: TCR of SEQ ID NOs 325 and 326 (TCR, V domains shown)
Valpha: QKEVEQNSGPLSVPEGAIASLNCTYSDRGSQSFFWYRQYSGKSPELIMFIYSNGDKEDGRFTAQLNKASQYVSLLIRDSQPSDSATYLCAVRTPSGSARQLTFGSGTQLTVLP
Vbeta: DAGVTQSPTHLIKTRGQHVTLRCSPKSGHDTVSWYQQALGQGPQFIFQYYGEEERQRGNFPDRFSGHQFPNYSSELNVNALLLGDSALYLCASSLGAGGGHSGNTIYFGEGSWLTVV

binding result (CALHM3 peptide on HLA): recognises
B19: TCR of SEQ ID NOs 323 and 324 (TCR, V domains shown)
Valpha: KQEVTQIPAALSVPEGENLVLNCSFTDSAIYNFQWFRQDPGKGLTSLLLIQSSQREQTSGRLNASLDKSSGRSTLYIAASQPGDSATYLCAAHPATGANSKLTFGKGITLSVRP
Vbeta: NAGVTQTPKFQVLKTGQGMTLQCAQDMNHNSMYWYRQDPGMGLRLIYYSASEGTTDKGEVPNGYNVSRLNKREFSLRLESAAPSQTSVYFCASSEASGSNSPLHFGNGTRLTVT

binding result (ACTL8 peptide on HLA [5]): recognises
B20: TCR of SEQ ID NOs 283 and 284 (TCR, V domains shown)
Valpha: KQEVTQIPAALSVPEGENLVLNCSFTDSAIYNLQWFRQDPGKGLTSLLLIQSSQREQTSGRLNASLDKSSGRSTLYIAASQPGDSATYLCAVKKDAGNKLTFGGGTRVLVKP
Vbeta: NAGVTQTPKFRVLKTGQSMTLLCAQDMNHEYMYWYRQDPGMGLRLIYYSASEGTTDKGEVPNGYNVSRLNKREFSLRLESAAPSQTSVYFCASSDSRRGGLLLYNSPLHFGNGTRLTVT

binding result (ACTL8 peptide on HLA [5]): recognises
B21: TCR of SEQ ID NOs 285 and 286 (TCR, V domains shown)
Valpha: KQEVTQIPAALSVPEGENLVLNCSFTDSAIYNLQWFRQDPGKGLTSLLLIQSSQREQTSGRLNASLDKSSGRSTLYIAASQPGDSATYLCAVRAAGNKLTFGGGTRVLVKP
Vbeta: NAGVTQTPKFRVLKTGQSMTLLCAQDMNHEYMYWYRQDPGMGLRLIYYSASEGTTDKGEVPNGYNVSRLNKREFSLRLESAAPSQTSVYFCASSDSRRGGLLLYNSPLHFGNGTRLTVT

The remaining lines, values behind:

B1: TCR of SEQ ID NOs 293 and 294 (TCR, V domains shown)
Valpha: KQEVTQIPAALSVPEGENLVLNCSFTDSAIYNLQWFRQDPGKGLTSLLLIQSSQREQTSGRLNASLDKSSGRSTLYIAASQPGDSATYLCAVRQHTGRRALTFGSGTRLQVQP
Vbeta: NAGVTQTPKFRILKIGQSMTLQCTQDMNHNYMYWYRQDPGMGLKLIYYSVGAGITDKGEVPNGYNVSRSTTEDFPLRLELAAPSQTSVYFCASSYSPENTEAFFGQGTRLTVV
binding result (ASCL2 peptide on HLA [1]): recognises

B2: TCR of SEQ ID NOs 295 and 296 (TCR, V domains shown)
Valpha: KQEVTQIPAALSVPEGENLVLNCSFTDSAIYNLQWFRQDPGKGLTSLLLIQSSQREQTSGRLNASLDKSSGRSTLYIAASQPGDSATYLCAVRQHTGRRALTFGSGTRLQVQP
Vbeta: NAGVTQTPKFRILKIGQSMTLQCTQDMNHNYMYWYRQDPGMGLRLIHYSVGAGITDQGEVPNGYNVSRSTTEDFPLRLLSAAPSQTSVYFCASSYSPEADIQYFGAGTRLSVL
binding result (ASCL2 peptide on HLA [1]): recognises

B3: TCR of SEQ ID NOs 289 and 290 (TCR, V domains shown)
Valpha: KQEVTQIPAALSVPEGENLVLNCSFTDSAIYNLQWFRQDPGKGLTSLLLIQSSQREQTSGRLNASLDKSSGRSTLYIAASQPGDSATYLCAVDSSGSRLTFGEGTQLTVNP
Vbeta: NAGVTQTPKFQVLKTGQSMTLQCAQDMNHEYMYWYRQDPGMGLRLIHYSVGAGITDQGEVPNGYNVSRSTTEDFPLRLLSAAPSQTSVYFCASRLLGGSGYTFGSGTRLTVV
binding result (ACTL8 peptide on HLA [2]): recognises

B4: TCR of SEQ ID NOs 307 and 308 (TCR, V domains shown)
Valpha: KQEVTQIPAALSVPEGENLVLNCSFTDSAIYNLQWFRQDPGKGLTSLLLIQSSQREQTSGRLNASLDKSSGRSTLYIAASQPGDSATYLCAVTDSWGKLQFGAGTQVVVTP
Vbeta: NAGVTQTPKFQVLKTGQSMTLQCAQDMNHNSMYWYRQDPGMGLRLIYYSVGAGITDQGEVPNGYNVSRSTTEDFPLRLLSAAPSQTSVYFCASSRGPINYGYTFGSGTRLTVV
binding result (ASCL2 peptide on HLA [3]): recognises

B5: TCR of SEQ ID NOs 309 and 310 (TCR, V domains shown)
Valpha: KQEVTQIPAALSVPEGENLVLNCSFTDSAIYNLQWFRQDPGKGLTSLLLIQSSQREQTSGRLNASLDKSSGRSTLYIAASQPGDSATYLCAVRPAGQNFVFGPGTRLSVLP
Vbeta: NAGVTQTPKFQVLKTGQSMTLQCAQDMNHNSMYWYRQDPGMGLRLIYYSASEGTTDKGEVPNGYNVSRLNKREFSLRLESAAPSQTSVYFCASSEALWGGNTEAFFGQGTRLPVV
binding result (ASCL2 peptide on HLA [3]): recognises

B6: TCR of SEQ ID NOs 297 and 298 (TCR, V domains shown)
Valpha: KQEVTQIPAALSVPEGENLVLNCSFTDSAIYNLQWFRQDPGKGLTSLLLIQSSQREQTSGRLNASLDKSSGRSTLYIAASQPGDSATYLCAVLTNDYKLSFGAGTTVTVRA
Vbeta: NAGVTQTPKFRVLKTGQSMTLLCAQDMNHEYMYWYRQDPGMGLRLIHYSVGEGTTAKGEVPDGYNVSRLKKQNFLLGLESAAPSQTSVYFCASSYSGFDSPLHFGNGTRLTVT
binding result (ASCL2 peptide on HLA [1]): recognises

B7: TCR of SEQ ID NOs 313 and 314 (TCR, V domains shown)
Valpha: KQEVTQIPAALSVPEGENLVLNCSFTDSAIYNLQWFRQDPGKGLTSLLLIQSSQREQTSGRLNASLDKSSGRSTLYIAASQPGDSATYLCAVSNYGGSQGNLIFGKGTKLSVKP
Vbeta: NAGVTQTPKFRVLKTGQSMTLLCAQDMNHEYMYWYRQDPGMGLRLIHYSVGEGTTAKGEVPDGYNVSRLKKQNFLLGLESAAPSQTSVYFCASTHWGRDSPLHFGNGTRLTVT
binding result (BRDT peptide on HLA): recognises

B8: TCR of SEQ ID NOs 279 and 280 (TCR, V domains shown)
Valpha: KQEVTQIPAALSVPEGENLVLNCSFTDSAIYNLQWFRQDPGKGLTSLLLIQSSQREQTSGRLNASLDKSSGRSTLYIAASQPGDSATYLCATGFQKLVFGTGTRLLVSP
Vbeta: NAGVTQTPKFQVLKTGQSMTLQCAQDMNHNSMYWYRQDPGMGLRLIYYSASEGTTDKGEVPNGYNVSRLNKREFSLRLESAAPSQTSVYFCASTLGRLLTEAFFGQGTRLTVV
binding result (ACTL8 peptide on HLA [4]): recognises

B9: TCR of SEQ ID NOs 291 and 292 (TCR, V domains shown)
Valpha: KQEVTQIPAALSVPEGENLVLNCSFTDSAIYNLQWFRQDPGKGLTSLLLIQSSQREQTSGRLNASLDKSSGRSTLYIAASQPGDSATYLCAVDADKLIFGTGTRLQVFP
Vbeta: NAGVTQTPKFRILKIGQSMTLQCTQDMNHEYMYWYRQDPGMGLRLIHYSVGEGTTAKGEVPDGYNVSRLKKQNFLLGLESAAPSQTSVYFCASREVGRDEHFFGPGTRLTVL
binding result (ACTL8 peptide on HLA [2]): recognises

B10: TCR of SEQ ID NOs 305 and 306 (TCR, V domains shown)
Valpha: KQEVTQIPAALSVPEGENLVLNCSFTDSAIYNLQWFRQDPGKGLTSLLLIQSSQREQTSGRLNASLDKSSGRSTLYIAASQPGDSATYLCAVRSSTDSWGKFQFGAGTQVVVTP
Vbeta: NAGVTQTPKFQVLKTGQSMTLQCAQDMNHEYMSWYRQDPGMGLRLIHYSVGAGITDQGEVPNGYNVSRSTTEDFPLRLLSAAPSQTSVYFCASSYSAGLTGELFFGEGSRLTVL
binding result (ASCL2 peptide on HLA [3]): recognises

B11: TCR of SEQ ID NOs 315 and 316 (TCR, V domains shown)
Valpha: KQEVTQIPAALSVPEGENLVLNCSFTDSAIYNLQWFRQDPGKGLTSLLLIQSSQREQTSGRLNASLDKSSGRSTLYIAASQPGDSATYLCAVSPRSNDYKLSFGAGTTVTVRA
Vbeta: NAGVTQTPKFRILKIGQSMTLQCTQDMNHNYMYWYRQDPGMGLKLIYYSVGAGTTDKGEVPNGYNVSRLNKREFSLRLESAAPSQTSVYFCASSATRRGDYGYTFGSGTRLTVV
binding result (BRDT peptide on HLA): recognises
